Experimental data reported in US11866736B2, “Protein prostheses for mitochondrial diseases or conditions” (The General Hospital Corporation, priority 2015, dated 2024).
Substitutions are numbered along the chain they refer to. Names and notes keep the numbering of the source.

Assays:
[1] = Enzymatic assay of NAD(P)H oxidase activity, NADH as substrate (absorbance at 340); assay type: biochemical
Procedure: FIGS. 1A-1E illustrate the biochemical properties of LbNOX with a C-terminal FLAG tag and a cleavable N-terminal hexahistidine (Hisx6) tag produced by overexpression in E. coli. Purified LbNOX-FLAG has a yellow color and a UV-visible absorption spectrum (λmax=371 and 444 nm) similar to other FAD-containing enzymes, which can be reduced upon the addition of sodium dithionite (FIG. 1B). (FIG. 1A) Reaction catalyzed by LbNOX. (FIG. 1B) UV-visible spectrum of purified LbNOX. Protein (82.8 μM FAD active sites) in 50 mM NaPi pH 7.5, 150 mM NaCl after purification in oxidized form (solid line) and after addition of excess of sodium dithionite, reduced form (dashed line). Inset: SDS-PAGE of purified LbNOX. (FIG. 1C) Simultaneous measurement of NADH and oxygen consumption by LbNOX as assayed in 50 mM NaPi pH 7.5, 150 mM NaCl at 28° C. NADH (500 μM) and LbNOX (1.8 μg) were added as indicated by arrows. (FIG. 1D) Michaelis-Menten analysis of the NAD(P)H oxidase activity of recombinant LbNOX. Inset: values for Vmax and KM for NADH represent the mean±S.D. (error bars) from four independent experiments. (FIG. 1E) The crystal structure of LbNOX. The FAD in stick representation and bound oxygen in red spheres. Inset: The substrate selectivity loops of LbNOX (containing Asp177, Ala178, and Pro184) and glutathione reductase—NADPH complex (containing Arg198 and Arg204) (PDB ID 1GET). Backbone atoms of NAD(P)H binding domains of each protein (residues 147-247 of LbNOX and 167-268 of glutathione reductase) were superimposed using the least square algorithm of COOT. Note that Arg198 and Arg204 of glutathione reductase, which tightly bind the phosphate moiety of NADPH, are replaced in LbNOX with Ala178 and Pro184, respectively. Negatively charged side chain of Asp177 in LbNOX replaces the neutral Val197 of glutathione reductase.
Recombinant LbNOX activity was monitored by following the decrease of the absorbance of NAD(P)H at […] using CARY® 100 spectrophotometer (Agilent, CA). A typical reaction mixture contained 2 μM FAD in 0.5 ml of the assay buffer (50 mM Na2HPO4, pH 7.5, 150 mM NaCl) and was incubated for 4 min at 37° C. before NAD(P)H (2-600 μM) and enzyme (0.08-6.8 μg) were added. Extinction coefficient (ε340=6.2 mM^−1 cm^−1) was used to calculate NAD(P)H oxidase activity. Simultaneous monitoring of oxygen consumption and NADH fluorescence was performed using a custom-built fluorimeter. In our setup the REDEYE™ oxygen patch (OceanOptics) was installed in a cuvette and the optical probe was connected to a fluorimeter. Oxygen causes quenching of the REDEYE™ patch fluorescence which allows to monitor the partial pressure of oxygen. In our experiments 0.5 ml of the assay buffer was preincubated at 28° C. before NADH (40-1500 μM) and LbNOX (0.1-2 μg) were added.

[2] = tested on: HeLa cells; test: Oxygen consumption rate (OCR), XF24 extracellular flux analyzer; assay type: cell-based, human; settings: for increase in oxygen consumption: resistance to antimycin: 1 μM antimycin (complex III inhibitor); for increase in oxygen consumption of HeLa cells: doxycycline-inducible expression
Procedure: Oxygen consumption rates (OCR) of HeLa cells expressing 5 bacterial NOXes (untargeted and targeted to mitochondria) and Luciferase under the control of doxycycline (DOX) inducible promoter (TRE3G) were measured with the XF24 Extracellular Flux Analyzer (Seahorse Bioscience, manufactured in 2008). Cells were seeded at 30-40×10^3 cells per well in XF24 24-well cell culture microplates in 200 μl of DMEM (DMEM (US Biological, […]), 3.7 g/L NaHCO3 and 10% dialyzed FBS (Life Technologies, 26400-044) and were incubated at 37° C. in 5% CO2 incubator. Media was replaced the next day with 1 ml per well and doxycycline (final concentration -300 ng/ml, prepared in water) or water were added to the corresponding wells to induce protein expression. Twenty four hour later, media was replaced with 950 μL of the assay medium (no pyruvate DMEM (US Biological, […]), 15.9 mg/L phenol red, 10% dialyzed FBS (Life Technologies, 26400-044) and 25 mM HEPES-KOH, pH 7.4) and plates were introduced into the […] Extracellular Flux Analyzer for experimental measurements. Each measurement was performed over 4 min after a 2-min mix and a 2-min wait period. Basal measurements were collected 8 times and 4 measurements were collected after injection of oligomycin (final concentration 1 μM), followed by 4 measurements after addition of antimycin A (final concentration 1 μM) from the XF24 ports in 50 μL of the assay medium. Cells were seeded at 30-40×10^3 per well in XF24 24-well cell culture microplates in 200 μl of normal growth media (DMEM (US Biological, […]), 3.7 g/L NaHCO3 and 10% dialyzed FBS (Life Technologies, 26400-044)) and were incubated at 37° C. in 5% CO2 incubator. For all experiments the next day media was renewed with 1 ml per well and doxycycline (final concentration -300 ng/ml) or water were added. Twenty four hours later, media was changed to no pyruvate media (no pyruvate DMEM (US Biological, […]), 15.9 mg/L phenol red, 3.7 g/L NaHCO3 and 10% dialyzed FBS (Life Technologies, 26400-044)). Two hours later, media was replaced with 950 μL of the assay medium (no pyruvate DMEM (US Biological, […]), 15.9 mg/L phenol red, 10% dialyzed FBS (Invitrogen, 26400-044) and 25 mM HEPES-KOH, pH 7.4) and OCR was measured. Each measurement was performed over 4 min after a 2-min mix and a 2-min wait period. Basal measurements were collected 8 times and 4 measurements were collected after injection of each drug: antimycin A (final concentration 1 μM) or piericidin (final concentration 1 μM). Three measurements before and after addition of the drug were averaged and normalized by the cell number.

B1: LbNOX: water-forming NADH oxidase endogenous to Lactobacillus brevis; tested with C-terminal FLAG tag (protein, listed as Lactobacillus brevis)
chain: KVTVVGCTHAGTFAIKQILAEHPDAEVTVYERNDVISFLSCGIALYLGGKVADPQGLFYSSPEELQKLGANVQMNHNVLAIDPDQKTVTVEDLTNHAQTTESYDKLVMTSGSWPIVPKIPGIDSDRVKLCKNWAHAQALIEDAKEAKRITVIGAGYIGAELAEAYSTTGHDVTLIDAMARVMPKYFDADFTDVIEQDYRDHGVQLALGETVESFTDSATGLTIKTDKNSYETDLAILCIGFRPNTDLLKGKVDMAPNGAIITDDYMRSSNPDIFAAGDSAAVHYNPTHQNAYIPLATNAVRQGILVGKNLVKPTVKYMGTQSSSGLALYDRTIVSTGLTLAAAKQQGLNAEQVIVEDNYRPEFMPSTEPVLMSLVFDPDTHRILGGALMSKYDVSQSANTLSVCIQNENTIDDLAMVDMLFQPNFDRPFNYLNILAQAAQAKVAQSVNA
modifications: C-terminal FLAG tag
- substrate selectivity NADH vs NADPH [1]: selectively oxidizes NADH over NADPH
- specific activity ([1]; after enterokinase cleavage of N-terminal Hisx6 tag): ~750 µmol/min/mg
- specific activity ([1]; fully reconstituted LbNOX (holoLbNOX), peak from Source 15Q, N-terminal Hisx6 tag present): ~550 µmol/min/mg
- Km ([1]; recombinant enzyme, read-out: apparent KM for NADH): 69 ± 3 µM
- increase in oxygen consumption: resistance to antimycin [2]: resistant
- increase in oxygen consumption: resistance to piericidin ([2]; 1 μM piericidin (complex I inhibitor)): resistant
- increase in oxygen consumption of HeLa cells [2]: 1.6 fold

B2: TPNOX: NADPH-specific quintuple mutant (G159A/D177A/A178R/M179S/P184R) of LbNOX (protein)
chain: B1 chain with G158A, D176A, A177R, M178S, P183R
- kcat with NADH [1]: 3.2 ± 0.2 s⁻¹
- increase in oxygen consumption: resistance to antimycin [2]: resistant
- increase in oxygen consumption of HeLa cells [2]: 1.7 fold
